{"source": "patent US11021533", "about": "(VANDERBILT UNIVERSITY, dated 2021)", "binders": {"B1": {"name": "ZIKV-117 (antibody, V domains shown)", "VH": "QVQLVESGGGVVRPGGSLRLSCAASGFTFKNYGIHWVRQAPGKGPEWVAFVRYDGNNKYYADSVKGRFTISRDNAKNTLSLQMNSLRVEDTAVYFCARDPETFGGFDYWGQGTLVTVSS", "VL": "ETVMTQSPATLSVSPGERGTLSCRASESVSSNLAWYQQKPGKAPRLLIYGASTRATGIPDRFSGSGSGTEFTLTISSLQSEDFAVYYCQQYYYSPRTFGQGTKVEVK"}, "B2": {"name": "ZIKV-216 (antibody, V domains shown)", "VH": "EVQLVQSGAEGKKPGESLKISCKGSGYNFSNYWIGWVRQMPGKGLEWMGIIYPGDSDTRYSPSFQGQVTISADKSINTAYLQWRSLRASDSAMFYCARGVMITTPNPYDWFDAWGQGTLVTVSS", "VL": "QSALTQPASVSGSPGQSITISCTGTGSDIGTYDYVSWYQQHPGKAPKLMIYGVTKRPSGVSHRFSGSKSVNTASLTISGLQAEDEADYFCSSYSTSSTFVVFGGGTKLTVL"}, "B3": {"name": "ZIKV-116 (antibody, V domains shown)", "VH": "EVKLVESGRGLVRPGGSLRLSCAASGFTFSNYAMSWVRQGPGMGLEWVSTITADSDSKYYVDSVKGRFTISRDNSKDTLFLHMTSLRAEDTAVYYCAKDRLSRGVGELYDSWGQGTLVTVSQ", "VL": "DIQMTQSPSTLSASVGDRVTITCRASQSIDVWLAWYQQKPGKAPKLLMYKTSTLQTGVPSRFSGSGSGTEFTLTISSLQTDDFATYYCQKYDSYPWTFGPGTKVEIK"}, "B4": {"name": "ZIKV-195 (antibody, V domains shown)", "VH": "QVQVVESGGGVVQPGRSLRLSCAASGFTFSSSAMHWVRQAPGKGLEWVAVISYDGSNKYYGDSVKGRFTISRDNSKNTLYLQMHSLRAEDTAVYYCAKDRDAYNTVGYFAYYYGMDVWGQGTLVTVSS", "VL": "QSVLTQPPSVSEAPRQRVTISCSGSSSNIGNNAVNWYQQLPGKAPKLLIYYDDLLPSGVSDRFSGSKSGTSASLAISGLQSEDEADYYCAAWDDSLTRYVFGTGTKVTVL"}}, "target": "ZIKV strain H/PF/2013 (French Polynesia, 2013) virus (Zika virus, strain H/PF/2013)", "assay": "cell-based or functional assay", "data": [{"binder": "B1", "values": [{"measurement": "FRNT50 (focus reduction neutralization test on Vero cells)", "result": 5, "unit": "ng/mL"}]}, {"binder": "B2", "values": [{"measurement": "FRNT50 (focus reduction neutralization test on Vero cells)", "result": 16, "unit": "ng/mL"}]}, {"binder": "B3", "values": [{"measurement": "FRNT50 (focus reduction neutralization test on Vero cells)", "result": 16, "unit": "ng/mL"}]}, {"binder": "B4", "values": [{"measurement": "FRNT50 (focus reduction neutralization test on Vero cells)", "result": 346, "unit": "ng/mL"}]}]}
